# Source: article PMC12079668 (2025)
# T1: full-length mouse Cavin1, His-MBP-tagged (mouse, UniProt O54724 1-392)
# T1 chain: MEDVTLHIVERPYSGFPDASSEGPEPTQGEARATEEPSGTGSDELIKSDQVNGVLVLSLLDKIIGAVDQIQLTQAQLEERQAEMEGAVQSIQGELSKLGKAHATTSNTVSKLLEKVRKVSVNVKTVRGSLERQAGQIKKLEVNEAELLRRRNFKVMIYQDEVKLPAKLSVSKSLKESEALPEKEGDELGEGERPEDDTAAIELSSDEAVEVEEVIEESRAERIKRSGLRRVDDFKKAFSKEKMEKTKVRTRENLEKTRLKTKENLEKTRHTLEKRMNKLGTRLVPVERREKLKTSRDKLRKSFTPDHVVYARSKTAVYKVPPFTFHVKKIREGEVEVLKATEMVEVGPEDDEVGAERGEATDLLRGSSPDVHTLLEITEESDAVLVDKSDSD
# T2: N-terminal fragment of mouse Cavin1 HR1 domain (residues 45–103) (mouse, UniProt O54724 45-103)
# T2 chain: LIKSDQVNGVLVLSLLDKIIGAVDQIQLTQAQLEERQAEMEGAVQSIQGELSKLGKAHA
# T3: mouse Cavin1 HR1 domain (residues 45–155), His-Ub-tagged (mouse, UniProt O54724 45-155)
# T3 chain: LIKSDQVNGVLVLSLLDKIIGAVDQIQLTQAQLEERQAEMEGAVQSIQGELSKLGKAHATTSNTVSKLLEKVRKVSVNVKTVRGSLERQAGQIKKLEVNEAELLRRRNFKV
# T4: mouse Cavin1 HR1 domain 5Q mutant (mouse, UniProt O54724 45-155, Lys115 to glutamine | Arg117 to glutamine | Lys118 to glutamine | Lys124 to …)
# T4 sequence: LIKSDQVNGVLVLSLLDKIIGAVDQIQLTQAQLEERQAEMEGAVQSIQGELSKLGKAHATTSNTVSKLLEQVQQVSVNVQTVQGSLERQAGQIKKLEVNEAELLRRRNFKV
# What was measured:
# Test in all cases: ITC
# [1] = target: T1, full-length mouse Cavin1, His-MBP-tagged
# [2] = target: T2, N-terminal fragment of mouse Cavin1 HR1 …
# [3] = target: T3, mouse Cavin1 HR1 domain (residues …)
# [4] = target: T4, mouse Cavin1 HR1 domain 5Q mutant
Kd [1] [nM],Kd [2] [nM],Kd [3] [nM],Kd [4] [nM],Binder
1730,451,,,nanobody NbB7 (VHH) VHH: QVQLQESGGGLVQAGGSLRLSCAVSGIRVNVNAMYWYRQAPGKQRELVAIITTFGSTNYADSAKGRFTISRDNTKNTVYLQMDNLKPEDTAVYYCNAPQFTDRYWGQGTQVTVSS
8880,555,500,143,nanobody NbA12 (VHH) VHH: QVQLQESGGGLVQAGGSLRLSCAASGFTFDDYAIGWFRQAPGKEREGVSCITSSDGSTYYADSVKGRFTISSDNAKNTVYLQMNSLKPEDTAVYYCAAESWPPLCHYSGMDYWGKGTQVTVSS
